Experimental data: patent US20050053993A1, “Uses of an endothelial cell receptor” (priority 2002, published 2005)

Tests used:
[1] = target: T1, recombinant human GRP78 (rGRP78) (Homo sapiens, UniProt P11021); assay: Equilibrium dialysis of rGRP78 and 3HK5; assay type: binding; conditions: competition dialysis, 2 nM GRP78 and 2 nM 3HK5; mutant up to 25-fold excess of GRP78
T1 construct: host or cells: yeast
Description: FIG. 14A is a graph showing equilibrium dialysis of recombinant GRP78 (rGRP78) and ^3HK5. ^3HK5 was added to one side of an equilibrium chamber at concentrations from 0.1 to 3 nM. 2 nM GRP78 was added to the other side of the chamber with a […] mwco filter between. ^3HK5 was allowed to equilibrate to both side of the chamber for 72 hours at room temperature. The amount of ^3HK5 on the GRP78 side of the chamber was compared to chamber with ^3HK5 alone to obtain the bound verses free rK5 distribution.
FIG. 14B is a graph showing competition binding dialysis rGRP78 and ^3HK5. Experiments were performed with 2 nM GRP78 and 2 nM ^3HK5 using rK5(K82A) mutant and unlabeled rK5 at various concentrations from 0.5 to 50 nM. The amount of ^3HK5 on both sides of the chamber was measured after 72 hours and compared to the control.
Binding of rK5 to rGRP78 was measured using equilibrium dialysis (Kariv I, Cao H, Oldenburg K R. Development of a high throughput equilibrium dialysis method. J Pharm Sci. 2001 May; 90(5):580-87). In the top well of a 96 well equilibrium dialyzer (molecular weight cut off 50K Daltons, Harvard Apparatus, Holliston, M A) 150 μl of 10 nM rGRP78 was added. In the reciprocal (bottom) chamber, 150 μl of increasing concentrations from 0.1 to 50 nM ^3HK5 was added. The chambers were shaken at room temperature for 72 hours. […]

tumor cell lines = assay: Apoptosis of various tumor cell lines under hypoxia; assay type: cell-based; conditions: 500 nM rK5, hypoxia overnight; exceptions Lewis Lung and PC-3
Description: FIG. 15B is a graph showing the effect of rK5 on induction of apoptosis in various tumor cell lines tested under hypoxic conditions. Cells were plated in 96-well plates overnight. Half the plates were put in hypoxic chambers overnight at 37° C. with and without 500 nM rK5. Increased apoptosis was shown by an ELISA technique that measures the number of nucleosome fragments. The apoptotic index was calculated from the apoptosis rate of control cells (without K5 and with or without hypoxia). The samples were run in quadruplicate.

T1 sequence (P11021 19-654): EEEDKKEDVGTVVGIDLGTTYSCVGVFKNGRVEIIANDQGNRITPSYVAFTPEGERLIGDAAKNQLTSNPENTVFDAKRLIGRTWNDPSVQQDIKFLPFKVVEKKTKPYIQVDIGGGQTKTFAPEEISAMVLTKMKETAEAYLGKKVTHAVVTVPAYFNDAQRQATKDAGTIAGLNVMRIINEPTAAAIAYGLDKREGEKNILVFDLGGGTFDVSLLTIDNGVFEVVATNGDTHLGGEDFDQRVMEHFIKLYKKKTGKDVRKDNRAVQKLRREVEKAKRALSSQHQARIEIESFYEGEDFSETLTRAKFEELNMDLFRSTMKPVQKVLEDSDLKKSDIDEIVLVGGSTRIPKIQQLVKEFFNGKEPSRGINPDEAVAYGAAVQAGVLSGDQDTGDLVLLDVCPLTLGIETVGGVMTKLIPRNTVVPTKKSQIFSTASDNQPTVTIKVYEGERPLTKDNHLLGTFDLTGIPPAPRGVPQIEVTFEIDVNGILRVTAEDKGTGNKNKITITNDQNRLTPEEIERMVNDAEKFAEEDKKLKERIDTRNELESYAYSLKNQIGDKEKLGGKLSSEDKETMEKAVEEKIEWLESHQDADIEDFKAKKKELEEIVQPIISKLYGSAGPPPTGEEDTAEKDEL

B1: rK5: recombinant kringle 5 fragment of human plasminogen (residues 450-543), expressed in E. coli or yeast (protein)
chain: LLPDVETPSEEDCMFGNGKGYRGKRATTVTGTPCQDWAAQEPHRHSIFTPETNPRAGLEKNYCRNPDGDVGGPWCYTTNPRKLYDYCDVPQCAA
Which “blocking of 3HK5 binding to rGRP78” value [1] does the source give for B1 here?
The value was “blocked”.

And the “induction of apoptosis in tumor cell lines under hypoxic conditions” value (tumor cell lines)?
Its value is “induced apoptosis in 8 out of 10 tumor cell lines”.
